According to US12297272B2, “IgG Fc variants for veterinary use” (Elanco US Inc., priority 2017, dated 2025):
Where a chain is given by its changes, count along the chain named.

B1: equine IgG2 Fc: wild-type equine IgG2 Fc polypeptide (protein)
chain 1: DMSKCPKCPAPELLGGPSVFIFPPNPKDALMISRTPVVTCVVVNLSDQYPDVQFSWYVDNTEVHSAITKQREAQFNSTYRVVSVLPIQHQDWLSGKEFKCSVTNVGVPQPISRAISRGKGPSRVPQVYVLPPHPDELAKSKVSVTCLVKDFYPPDISVEWQSNRWPELEGKYSTTPAQLDGDGSYFLYSKLSLETSRWQQVESFTCAVMHEALHNHFTKTDISESLGK
chain 2: GGPSVFIFPPNPKDALMISRTPVVTCVVVNLSDQYPDVQFSWYVDNTEVHSAITKQREAQFNSTYRVVSVLPIQHQDWLSGKEFKCSVTNVGVPQPISRAISRGKGPSRVPQVYVLPPHPDELAKSKVSVTCLVKDFYPPDISVEWQSNRWPELEGKYSTTPAQLDGDGSYFLYSKLSLETSRWQQVESFTCAVMHEALHNHFTKTDISESLGK
modifications: Synthetic Variant equine Fc IgG2 (with equine IgG1 hinge), Protein A - , C1q -; Wild-type equine IgG2 Fc, Protein A -, C1q -
notes: wild-type equine IgG2 Fc polypeptide
B2: equine IgG5 Fc: wild-type equine IgG5 Fc polypeptide (protein)
chain: GGPSVFIFPPKPKDVLMISRKPEVTCVVVDLGHDDPDVQFTWFVDGVETHTATTEPKEEQFNSTYRVVSVLPIQHQDWLSGKEFKCSVTSKALPAPVERTISKAKGQLRVPQVYVLAPHPDELAKNTVSVTCLVKDFYPPEIDVEWQSNEHPEPEGKYSTTPAQLNSDGSYFLYSKLSVETSRWKQGESFTCGVMHEAVENHYTQKNVSHSPGK
modifications: Wild-type equine IgG5 Fc, Protein A -, C1q -
notes: wild-type equine IgG5 Fc polypeptide
B3: equine IgG1 Fc: wild-type equine IgG1 Fc polypeptide (protein)
chain: GGPSVFLFPPNPKDTLMITRTPEVTCVVVDVSQENPDVKFNWYMDGVEVRTATTRPKEEQFNSTYRVVSVLRIQHQDWLSGKEFKCKVNNQALPQPIERTITKTKGRSQEPQVYVLAPHPDESKKSKVSVTCLVKDFYPPEINIEWQSNGQPELETKYSTTQAQQDSDGSYFLYSKLSVDRNRWQQGTTFTCGVMHEALHNHYTQKNVSKNPGK
modifications: Wild-type equine IgG1 Fc , Protein A +, C1q +
notes: wild-type equine IgG1 Fc polypeptide
B4: feline IgG1a Fc: wild-type feline IgG1a Fc polypeptide (protein)
chain 1: RKTDHPPGPKTGEGPKCPPPEMLGGPSIFIFPPKPKDTLSISRTPEVTCLVVDLGPDDSDVQITWFVDNTQVYTAKTSPREEQFNSTYRVVSVLPILHQDWLKGKEFKCKVNSKSLPSPIERTISKAKGQPHEPQVYVLPPAQEELSENKVSVTCLIKSFHPPDIAVEWEITGQPEPENNYRTTPPQLDSDGTYFVYSKLSVDRSHWQRGNTYTCSVSHEALHSHHTQKSLTQSPGK
chain 2: B4 chain 1 with T11P, G12C, E13D, G14C
modifications: Alternative wild-type feline IgG1a Fc, Protein A +, C1q +; Wild-type feline IgG1a Fc, Protein A +, C1q +
notes: wild-type feline IgG1a Fc polypeptide
B5: feline IgG1b Fc: wild-type feline IgG1b Fc polypeptide (protein)
chain 1: B4 chain 1 with A127D, K158E, S159G, H161Y, P163S, V196L, K199R, H206R
chain 2: RKTDHPPGPKPCDCPKCPPPEMLGGPSIFIFPPKPKDTLSISRTPEVTCLVVDLGPDDSDVQITWFVDNTQVYTAKTSPREEQFNSTYRVVSVLPILHQDWLKGKEFKCKVNSKSLPSPIERTISKDKGQPHEPQVYVLPPAQEELSENKVSVTCLIEGFYPSDIAVEWEITGQPEPENNYRTTPPQLDSDGTYFLYSRLSVDRSRWQRGNTYTCSVSHEALHSHHTQKSLTQSPGK
modifications: Alternative wild-type feline IgG1b Fc, Protein A +, C1q +; Wild-type feline IgG1b Fc, Protein A +, C1q +
notes: wild-type feline IgG1b Fc polypeptide
B6: equine IgG3 Fc: wild-type equine IgG3 Fc polypeptide (protein)
chain: GGPSVFIFPPKPKDVLMITRMPEVTCLVVDVSHDSSDVLFTWYVDGTEVKTAKTMPNEEQNNSTYRVVSVLRIQHQDWLNGKKFKCKVNNQALPAPVERTISKATGQTRVPQVYVLAPHPDELSKNKVSVTCLVKDFYPPDITVEWQSNEHPEPEGKYRTTEAQKDSDGSYFLYSKLTVEKDRWQQGTTFTCVVMHEALHNHVMQKNISKNPGK
modifications: Wild-type equine IgG3 Fc, Protein A +, C1q+
notes: wild-type equine IgG3 Fc polypeptide
B7: equine IgG4 Fc: wild-type equine IgG4 Fc polypeptide (protein)
chain: VGPSVFIFPPKPKDVLMISRTPTVTCVVVDVGHDFPDVQFNWYVDGVETHTATTEPKQEQFNSTYRVVSVLPIQHKDWLSGKEFKCKVNNKALPAPVERTISAPTGQPREPQVYVLAPHRDELSKNKVSVTCLVKDFYPPDIDIEWKSNGQPEPETKYSTTPAQLDSDGSYFLYSKLTVETNRWQQGTTFTCAVMHEALHNHYTEKSVSKSPGK
modifications: Wild-type equine IgG4 Fc, Protein A +, C1q +
notes: wild-type equine IgG4 Fc polypeptide
B8: equine IgG7 Fc: wild-type equine IgG7 Fc polypeptide (protein)
chain: B7 chain with F61N, V70I, P72A, K91Q, E98Q, R99K, A103K, R120P, S167G
modifications: Wild-type equine IgG7 Fc, Protein A +, C1q +
notes: wild-type equine IgG7 Fc polypeptide
B9: equine IgG6 Fc: wild-type equine IgG6 Fc polypeptide (protein)
chain: GRPSVFIFPPNPKDTLMISRTPEVTCVVVDVSQENPDVKFNWYVDGVEAHTATTKAKEKQDNSTYRVVSVLPIQHQDWRRGKEFKCKVNNRALPAPVERTITKAKGELQDPQVYILAPHPDEVTKNTVSVTCLVKDFYPPDINVEWQSNEEPEPEVKYSTTPAQLDGDGSYFLYSKLTVETDRWEQGESFTCVVMHEAIRHTYRQKSITNFPGK
modifications: Wild-type equine IgG6 Fc, Protein A -, C1q -
notes: wild-type equine IgG6 Fc polypeptide

How the values were obtained:
Protein A = Protein A (Staphylococcus aureus, UniProt P38507); conditions: for Protein A Binding: Wild-type Equine IgG Fc
Description: In some embodiments, the KD of an IgG Fc polypeptide, such as a variant IgG Fc polypeptide, to Protein A or to C1q or to CD16 is measured by using biolayer interferometry assays using a biosensor, such as an Octet® System (Pall ForteBio LLC, Fremont, CA) according to the supplier's instructions. In brief, biotinylated Protein A or C1q or CD16 is bound to the sensor tip and the association of IgG Fc polypeptide is monitored for a specified time or until steady state is reached. Dissociation may be monitored for a specified time or until steady state is reached. A buffer only blank curve is subtracted to correct for any drift. The data are fit to a 2:1 binding model using ForteBio data analysis software to determine association rate constant (kon), dissociation rate constant (koff), and the Kd. The equilibrium dissociation constant (KD) is calculated as the ratio of koff/kon. The term “kon” refers to the rate constant for association of a molecule X to its partner Y and the term “koff” refers to the rate constant for dissociation of a molecule X or partner Y from the molecule X/partner Y complex.
Binding analysis may be performed using an Octet biosensor. Briefly, the target molecule (e.g., Protein A, C1q, CD16, etc.) may be biotinylated and free unreacted biotin removed (e.g., by dialysis). The biotinylated target molecule is captured on streptavidin sensor tips. Association of the target molecule with various concentrations (e.g., 10 μg/mL) of IgG Fc polypeptide is monitored for a specified time or until steady state is reached. Dissociation is monitored for a specified time or until steady state is reached. A buffer only blank curve may be subtracted to correct for any drift. The data are fit to a 1:1 binding model using ForteBio™ data analysis software to determine the kon, koff, and the Kd.

C1q = C1q (Homo sapiens, UniProt P02745+P02746+P02747); assay: C1q binding of IgG Fc polypeptides (Octet biolayer interferometry described); conditions: for C1q Binding: Wild-type Equine IgG Fc; as to C1q binding: key: (−) denotes low or no measurable binding activity
Text: Binding analysis may be performed using an Octet biosensor.

Chain of C1q (P02745 23-245): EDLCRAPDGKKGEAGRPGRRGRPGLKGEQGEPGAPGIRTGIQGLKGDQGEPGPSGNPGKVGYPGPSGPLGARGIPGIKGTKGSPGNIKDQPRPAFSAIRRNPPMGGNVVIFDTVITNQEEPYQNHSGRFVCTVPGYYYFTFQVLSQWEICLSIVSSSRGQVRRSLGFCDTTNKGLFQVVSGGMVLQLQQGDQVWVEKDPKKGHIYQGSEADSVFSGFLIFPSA
Chain of C1q (P02746 28-253): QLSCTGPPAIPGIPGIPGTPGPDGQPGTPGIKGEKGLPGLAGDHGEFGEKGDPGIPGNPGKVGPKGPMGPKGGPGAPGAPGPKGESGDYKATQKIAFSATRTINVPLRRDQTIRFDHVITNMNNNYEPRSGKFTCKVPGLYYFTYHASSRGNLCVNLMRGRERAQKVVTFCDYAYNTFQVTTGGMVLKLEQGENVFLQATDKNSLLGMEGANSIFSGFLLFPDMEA
Chain of C1q (P02747 29-245): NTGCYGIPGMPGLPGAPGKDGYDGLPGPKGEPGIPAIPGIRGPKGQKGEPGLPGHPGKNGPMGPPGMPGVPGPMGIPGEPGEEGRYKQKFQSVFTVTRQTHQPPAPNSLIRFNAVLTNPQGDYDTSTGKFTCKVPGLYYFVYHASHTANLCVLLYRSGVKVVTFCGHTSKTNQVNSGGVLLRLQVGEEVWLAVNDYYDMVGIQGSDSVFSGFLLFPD

Molecule	Protein A binding affinity (Protein A)	Protein A Binding (Protein A)	binding affinity to C1q (C1q)	C1q Binding (C1q)
B1	weak or no measurable Protein A binding affinity	−	weak or no measurable binding affinity to C1q	−
B2	weak or no measurable Protein A binding affinity	−	weak or no measurable binding affinity to C1q	−
B3	have Protein A binding affinity		bind to C1q	
B4	have Protein A binding affinity		bind to C1q	
B5	have Protein A binding affinity		bind to C1q	
B6	have Protein A binding affinity		bind to C1q	
B7	have Protein A binding affinity		bind to C1q	
B8	have Protein A binding affinity		bind to C1q	
B9	weak or no measurable Protein A binding affinity	−	weak or no measurable binding affinity to C1q	−
